Measured values from paper PMC7229829, “Distortion of double-stranded DNA structure by the binding of the restriction DNA glycosylase R.PabI” (Nucleic Acids Research, 2020).

B1: R.PabI(Y68F-K154A) mutant (enzyme, Pyrococcus abyssi, UniProt Q9V2B6 8-226, looked up)
chain: EASVSFENGKIVVRLPITRPTSKIRVKKIENGVGIPVSTRKKSFPSDENLRDYYIEWQISFARDGKYDYELSRMVRLAHEHGILTYNDIYELLKFADDVKSYLEDKGIRRESTNEELYGFNIYEDVYPVAKKELPSGEFIGIVLKHAQRAVGYQSMVYVCIPLTNVEPSLAGRVARRNEVVKYEVPVDLMKELLKAFIIASETHKNDIVKFLRSIIGTS
notes: R.PabI, restriction DNA glycosylase of Pyrococcus abyssi, residues 8-226, cloned into pET26b; Mr = 25 287 printed; the vector pET26b can add a C-terminal His tag, but the printed Mr fits residues 8-226 without a tag; also called Y68F-K154A double mutant of R.PabI; source: E. coli Rosetta(DE3)pLysS, purified (heat 80°C, TOYOPEARL AF-Heparin, Mono S)
B2: R.PabI(Y68F-P27G) mutant (enzyme, Pyrococcus abyssi, UniProt Q9V2B6 8-226, looked up)
chain: EASVSFENGKIVVRLPITRGTSKIRVKKIENGVGIPVSTRKKSFPSDENLRDYYIEWQISFARDGKYDYELSRMVRLAHEHGILTYNDIYELLKFADDVKSYLEDKGIRRESTNEELYGFNIYEDVYPVAKKELPSGEFIGIVLKHKQRAVGYQSMVYVCIPLTNVEPSLAGRVARRNEVVKYEVPVDLMKELLKAFIIASETHKNDIVKFLRSIIGTS
notes: R.PabI, restriction DNA glycosylase of Pyrococcus abyssi, residues 8-226, cloned into pET26b; Mr = 25 304 printed; Called a dimer in the methods (loaded '2 μM as a dimer'); also called Y68F-P27G double mutant; source: E. coli Rosetta(DE3)pLysS, purified (heat 80°C, TOYOPEARL AF-Heparin, Mono S)
B3: R.PabI(K154A) mutant (enzyme, Pyrococcus abyssi, UniProt Q9V2B6 8-226, looked up)
chain: EASVSFENGKIVVRLPITRPTSKIRVKKIENGVGIPVSTRKKSFPSDENLRDYYIEWQISYARDGKYDYELSRMVRLAHEHGILTYNDIYELLKFADDVKSYLEDKGIRRESTNEELYGFNIYEDVYPVAKKELPSGEFIGIVLKHAQRAVGYQSMVYVCIPLTNVEPSLAGRVARRNEVVKYEVPVDLMKELLKAFIIASETHKNDIVKFLRSIIGTS
notes: R.PabI, restriction DNA glycosylase of Pyrococcus abyssi, residues 8-226, cloned into pET26b; Mr = 25 303 printed; Called a dimer in the methods (loaded '2 μM as a dimer'); PDB 3WAZ (cited) holds R.PabI(K154A) with product dsDNA; also called K154A mutant of R.PabI; source: E. coli Rosetta(DE3)pLysS, purified (heat 80°C, TOYOPEARL AF-Heparin, Mono S)
B4: R.PabI(Y68F-P27G-T28G) mutant (enzyme, Pyrococcus abyssi, UniProt Q9V2B6 8-226, looked up)
chain: EASVSFENGKIVVRLPITRGGSKIRVKKIENGVGIPVSTRKKSFPSDENLRDYYIEWQISFARDGKYDYELSRMVRLAHEHGILTYNDIYELLKFADDVKSYLEDKGIRRESTNEELYGFNIYEDVYPVAKKELPSGEFIGIVLKHKQRAVGYQSMVYVCIPLTNVEPSLAGRVARRNEVVKYEVPVDLMKELLKAFIIASETHKNDIVKFLRSIIGTS
notes: R.PabI, restriction DNA glycosylase of Pyrococcus abyssi, residues 8-226, cloned into pET26b; Mr = 25 260 printed; Called a dimer in the methods (loaded '2 μM as a dimer'); also called Y68F-P27G-T28G triple mutant; source: E. coli Rosetta(DE3)pLysS, purified (heat 80°C, TOYOPEARL AF-Heparin, Mono S)
B5: R.PabI(Y68F) mutant (enzyme, Pyrococcus abyssi, UniProt Q9V2B6 8-226, looked up)
chain: EASVSFENGKIVVRLPITRPTSKIRVKKIENGVGIPVSTRKKSFPSDENLRDYYIEWQISFARDGKYDYELSRMVRLAHEHGILTYNDIYELLKFADDVKSYLEDKGIRRESTNEELYGFNIYEDVYPVAKKELPSGEFIGIVLKHKQRAVGYQSMVYVCIPLTNVEPSLAGRVARRNEVVKYEVPVDLMKELLKAFIIASETHKNDIVKFLRSIIGTS
notes: R.PabI, restriction DNA glycosylase of Pyrococcus abyssi, residues 8-226, cloned into pET26b; Mr = 25 344 printed; Called a dimer in the methods (loaded '2 μM as a dimer'); source: E. coli Rosetta(DE3)pLysS, purified (heat 80°C, TOYOPEARL AF-Heparin, Mono S)
B6: R.PabI(K154A-P27G-T28G) mutant (enzyme, Pyrococcus abyssi, UniProt Q9V2B6 8-226, looked up)
chain: EASVSFENGKIVVRLPITRGGSKIRVKKIENGVGIPVSTRKKSFPSDENLRDYYIEWQISYARDGKYDYELSRMVRLAHEHGILTYNDIYELLKFADDVKSYLEDKGIRRESTNEELYGFNIYEDVYPVAKKELPSGEFIGIVLKHAQRAVGYQSMVYVCIPLTNVEPSLAGRVARRNEVVKYEVPVDLMKELLKAFIIASETHKNDIVKFLRSIIGTS
notes: R.PabI, restriction DNA glycosylase of Pyrococcus abyssi, residues 8-226, cloned into pET26b; Mr = 25 219 printed; Called a dimer in the methods (loaded '2 μM as a dimer'); source: E. coli Rosetta(DE3)pLysS, purified (heat 80°C, TOYOPEARL AF-Heparin, Mono S)

Molecular target: the molecule itself
Experiment: SEC; Superdex 200 HR 10/30; 2 μM as a dimer loaded; 10 mM MES pH 6.0, 500 mM NaCl; oligomeric state estimated against standard proteins

Protein | stoichiometry N | binding result
B1 | 2 | 
B2 |  | binds
B3 |  | binds
B4 |  | binds
B5 |  | binds
B6 |  | binds
